Source: paper PMC3916842

Assays:
[1] = target: talin (human) (UniProt Q9Y490); experiment: FRAP on a spinning disk confocal microscope
[2] = target: talin (human) (UniProt Q9Y490); experiment: FRAP on a TIRF microscope
[3] = target: talin (human) (UniProt Q9Y490); experiment: TIRF microscopy of recruitment to a protein-micropatterned surface

koff [1]: 0.0029 s⁻¹
koff [2]: 0.0033 s⁻¹
koff [3]: 0.0034 s⁻¹
Substance: EGFP-vinculin 1-851 (Vh) (from UniProt P18206 1-851) (domain or fragment)
